# According to patent publication US20240270813A1 (UNIVERSITY OF PITTSBURGH OF THE COMMONWEALTH SYSTEM OF …, published 2024):
# Changes are numbered by the printed parent chain. Several values for one entry are separate records, joined by “and”; a condition that tells them apart may be missing. Identical values can stand only once.
# B1: TCR W (TCR, V domains shown)
# Valpha: AQSVAQPEDQVNVAEGNPLTVKCTYSVSGNPYLFWYVQYPNRGLQFLLKYITGDNLVKGSYGFEAEFNKSQTSFHLKKPSALVSDSALYFCAVRDPTSGTYKYIFGTGTRLKVLA
# Vbeta: DTGVSQDPRHKITKRGQNVTFRCDPISEHNRLYWYRQTLGQGPEFLTYFQNEAQLEKSRLLSDRFSAERPKGSFSTLEIQRTEQGDSAMYLCASSLVQGNEQFFGPGTRLTVL
# B2: TCR Y (TCR, V domains shown)
# Valpha: SQQGEEDPQALSIQEGENATMNCSYKTSINNLQWYRQNSGRGLVHLILIRSNEREKHSGRLRVTLDTSKKSSSLLITASRAADTASYFCATAYSGGGADGLTFGKGTHLIIQP
# Vbeta: B1 Vbeta with D7N, V97I, Q98R, G99A, N100E, E101K, Q102L, P106S, R109Q, T111S
# B3: TCR D (TCR, V domains shown)
# Valpha: B1 Valpha with D95A
# Vbeta: B1 Vbeta with Q98S
# B4: TCR X (TCR, V domains shown)
# Valpha: GENVEQHPSTLSVQEGDSAVIKCTYSDSASNYFPWYKQELGKRPQLIIDIRSNVGEKKDQRIAVTLNKTAKHFSLHITETQPEDSAVYFCVVLGGAGNMLTFGGGTRLMVKP
# Vbeta: B1 Vbeta with V97T, Q98V, G99S, N100D, E101G, Q102Y, F103T, P106S, L113V
# B5: TCR E (TCR, V domains shown)
# Valpha: B1 Valpha with D95G
# Vbeta: B1 Vbeta with Q98S
# B6: TCR A (TCR, V domains shown)
# Valpha: AQSVAQPEDQVNVAEGNPLTVKCTYSVSGNPYLFWYVQYPNRGLQFLLKYITGDNLVKGSYGFEAEFNKSQTSFHLKKPSALVSDSALYFCAVRGGSYKYIFGTGTRLKVLA
# Vbeta: DTGVSQDPRHKITKRGQNVTFRCDPISEHNRLYWYRQTLGQGPEFLTYFQNEAQLEKSRLLSDRFSAERPKGSFSTLEIQRTEQGDSAMYLCASTPGTVYNEQFFGPGTRLTVL
# B7: TCR F (TCR, V domains shown)
# Valpha: GENVEQHPSTLSVQEGDSAVIKCTYSDSASNYFPWYKQELGKRPQLIIDIRSNVGEKKDQRIAVTLNKTAKHFSLHITETQPEDSAVYFCAAHLTGGGNKLTFGTGTQLKVEL
# Vbeta: B6 Vbeta with T95S, P96S, G97R, T98A, V99G, Y100G, N101E, E102T, F104Y, T112L
# B8: TCR V (TCR, V domains shown)
# Valpha: AQTVTQSQPEMSVQEAETVTLSCTYDTSENNYYLFWYKQPPSRQMILVIRQEAYKQQNATENRFSVNFQKAAKSFSLKISDSQLGDTAMYFCALYSGAGSYQLTFGKGTKLSVIP
# Vbeta: DTGVSQDPRHKITKRGQNVTFRCDPISEHNRLYWYRQTLGQGPEFLTYFQNEAQLEKSRLLSDRFSAERPKGSFSTLEIQRTEQGDSAMYLCASSLAAGMNTEAFFGQGTRLTVV
# B9: TCR C (TCR, V domains shown)
# Valpha: KQEVTQIPAALSVPEGENLVLNCSFTDSAIYNLQWFRQDPGKGLTSLLLIQSSQREQTSGRLNASLDKSSGRSTLYIAASQPGDSATYLCAVRPRTSGTYKYIFGTGTRLKVLA
# Vbeta: DTGVSQDPRHKITKRGQNVTFRCDPISEHNRLYWYRQTLGQGPEFLTYFQNEAQLEKSRLLSDRFSAERPKGSFSTLEIQRTEQGDSAMYLCASTELSGNTIYFGEGSWLTVV
# B10: TCR H (TCR, V domains shown)
# Valpha: GENVEQHPSTLSVQEGDSAVIKCTYSDSASNYFPWYKQELGKRPQLIIDIRSNVGEKKDQRIAVTLNKTAKHFSLHITETQPEDSAVYFCAAPLAGGGADGLTFGKGTHLIIQP
# Vbeta: B1 Vbeta with L96T, V97T, Q98L, G99I, N100T, E101G, Q102Y, F103T, P106S, L113V
# B11: TCR B (TCR, V domains shown)
# Valpha: SQQGEEDPQALSIQEGENATMNCSYKTSINNLQWYRQNSGRGLVHLILIRSNEREKHSGRLRVTLDTSKKSSSLLITASRAADTASYFCATAPGSGTYKYIFGTGTRLKVLA
# Vbeta: DTGVSQDPRHKITKRGQNVTFRCDPISEHNRLYWYRQTLGQGPEFLTYFQNEAQLEKSRLLSDRFSAERPKGSFSTLEIQRTEQGDSAMYLCAAPPDTYNSPLHFGNGTRLTVT
# B12: TCR G (TCR, V domains shown)
# Valpha: SQQGEEDPQALSIQEGENATMNCSYKTSINNLQWYRQNSGRGLVHLILIRSNEREKHSGRLRVTLDTSKKSSSLLITASRAADTASYFCAGTGANNLFFGTGTRLTVIP
# Vbeta: B1 Vbeta with V97I, Q98R, N100E, E101T, F103Y, T111L
# B13: TCR O (TCR, V domains shown)
# Valpha: GENVEQHPSTLSVQEGDSAVIKCTYSDSASNYFPWYKQELGKRPQLIIDIRSNVGEKKDQRIAVTLNKTAKHFSLHITETQPEDSAVYFCAMRNNNDMRFGAGTRLTVKP
# Vbeta: B1 Vbeta with V97T, Q98T, G99L, N100D, E101T, F103Y
# B14: TCR I (TCR, V domains shown)
# Valpha: B9 Valpha with P94G, R95T
# Vbeta: B1 Vbeta with L96F, V97L, Q98A, N100E, E101T, F103Y, T111L
# B15: TCR M (TCR, V domains shown)
# Valpha: B9 Valpha with P94G, R95S
# Vbeta: B1 Vbeta with Q98A, N100E, E101T, F103Y, T111L
# B16: TCR Q (TCR, V domains shown)
# Valpha: GENVEQHPSTLSVQEGDSAVIKCTYSDSASNYFPWYKQELGKRPQLIIDIRSNVGEKKDQRIAVTLNKTAKHFSLHITETQPEDSAVYFCAASNPTGANSKLTFGKGITLSVRP
# Vbeta: B1 Vbeta with Q98R, G99N, N100E, E101K, Q102L, P106S, R109Q, T111S
# B17: TCR N (TCR, V domains shown)
# Valpha: B13 Valpha with M92A, R93I, N94V, N95G, D97Q, M98F, R99Y, A102T, R105S, K109I
# Vbeta: B1 Vbeta with L96E, V97T, Q98T, G99L, N100S
# B18: TCR J (TCR, V domains shown)
# Valpha: QKEVEQDPGPLSVPEGAIVSLNCTYSNSAFQYFMWYRQYSRKGPELLMYTYSSGNKEDGRFTAQVDKSSKYISLFIRDSQPSDSATYLCAMRATSGTYKYIFGTGTRLKVLA
# Vbeta: B6 Vbeta with S94V, T95P, P96G, T98S, V99S
# B19: TCR K (TCR, V domains shown)
# Valpha: DAKTTQPNSMESNEEEPVHLPCNHSTISGTDYIHWYRQLPSQGPEYVIHGLTSNVNNRMASLAIAEDRKSSTLILHRATLRDAAVYYCILRAGSGTYKYIFGTGTRLKVLA
# Vbeta: B6 Vbeta with T95S
# B20: TCR P (TCR, V domains shown)
# Valpha: AQSVSQHNHHVILSEAASLELGCNYSYGGTVNLFWYVQYPGQHLQLLLKYFSGDPLVKGIKGFEAEFIKSKFSFNLRKPSVQWSDTAEYFCAVRDSGAGSYQLTFGKGTKLSVIP
# Vbeta: B6 Vbeta with T95L, P96T
# B21: TCR T (TCR, V domains shown)
# Valpha: SQQGEEDPQALSIQEGENATMNCSYKTSINNLQWYRQNSGRGLVHLILIRSNEREKHSGRLRVTLDTSKKSSSLLITASRAADTASYFCATPSGNTPLVFGKGTRLSVIA
# Vbeta: B6 Vbeta with F45L, T95S, P96Q, G97L, T98A, V99G, Y100V, N101I
# B22: TCR S (TCR, V domains shown)
# Valpha: DAKTTQPPSMDCAEGRAANLPCNHSTISGNEYVYWYRQIHSQGPQYIIHGLKNNETNEMASLIITEDRKSSTLILPHATLRDTAVYYCIVRASTSGTYKYIFGTGTRLKVLA
# Vbeta: B6 Vbeta with T95S
# B23: TCR L (TCR, V domains shown)
# Valpha: KQEVTQIPAALSVPEGENLVLNCSFTDSAIYNLQWFRQDPGKGLTSLLLIQSSQREQTSGRLNASLDKSSGRSTLYIAASQPGDSATYLCAVTRTGANNLFFGTGTRLTVIP
# Vbeta: DTGVSQDPRHKITKRGQNVTFRCDPISEHNRLYWYRQTLGQGPEFLTYFQNEAQLEKSRLLSDRFSAERPKGSFSTLEIQRTEQGDSAMYLCASSLGVLGIGYTFGSGTRLTVV
# B24: TCR R (TCR, V domains shown)
# Valpha: SQQGEEDPQALSIQEGENATMNCSYKTSINNLQWYRQNSGRGLVHLILIRSNEREKHSGRLRVTLDTSKKSSSLLITASRAADTASYFCATEMNSNYQLIWGAGTKLIIKP
# Vbeta: B8 Vbeta with L96P, A97L, A98K, M100S, T102Y, E103G, A104Y, F105T, Q108S
# Target: T1, minor histocompatibility antigen HA-1, immunogenic H variant peptide on HLA-A*02:01 (human)
# T1 peptide: VLHDDLLEA
# Test: multimer staining
row,Binder,binding result
1,B1,recognises
2,B2,recognises
3,B3,recognises
4,B4,recognises
5,B5,recognises
6,B6,recognises
7,B7,recognises
8,B8,recognises
9,B9,recognises

# Target: T1, minor histocompatibility antigen HA-1, …
# Test: CD69 on TCR-transduced Jurkat J.RT3-T3.5-CD8; overnight with A*0201 LCLs (1:1) and titrated HA-1 H peptide; given as a range, upper bound given; full-length, on cells
row,Binder,EC50 of peptide
1,B10,≤ 100 ng/mL and ≤ 100 nM
2,B11,≤ 100 ng/mL and ≤ 100 nM
3,B12,≤ 100 ng/mL and ≤ 100 nM
4,B13,≤ 100 ng/mL and ≤ 100 nM
5,B14,≤ 100 ng/mL and ≤ 100 nM
6,B15,≤ 100 ng/mL and ≤ 100 nM
7,B16,≤ 1000 ng/mL and ≤ 1 µM
8,B17,≤ 100 ng/mL and ≤ 100 nM
9,B18,≤ 100 ng/mL and ≤ 100 nM
10,B19,≤ 100 ng/mL and ≤ 100 nM
11,B20,≤ 100 ng/mL and ≤ 100 nM
12,B21,≤ 1000 ng/mL and ≤ 1 µM
13,B22,≤ 1000 ng/mL and ≤ 1 µM
14,B23,≤ 100 ng/mL and ≤ 100 nM
15,B24,≤ 1000 ng/mL and ≤ 1 µM
